Key:
[1] = target: HA GCN4 (NL03 HA fused to a GCN4 trimerization domain) (influenza A virus A/Netherlands/213/2003(H3N2)); experiment: negative-stain EM
[2] = target: HA GCN4 (NL03 HA fused to a GCN4 trimerization domain) (influenza A virus A/Netherlands/213/2003(H3N2)); experiment: SEC

## HA GCN4 (NL03 HA fused to a GCN4 trimerization domain) (domain or fragment)
[1]
  stoichiometry N: 3
[2]
  stoichiometry N: 3

Source: paper PMC10998906
